T1: Human TNFR1 (Acro Biosystem, TN1-H5222) (human, UniProt P19438 30-211)
T1 construct: Bought protein; also called TNF receptor type 1; CD120a
T1 sequence (looked up): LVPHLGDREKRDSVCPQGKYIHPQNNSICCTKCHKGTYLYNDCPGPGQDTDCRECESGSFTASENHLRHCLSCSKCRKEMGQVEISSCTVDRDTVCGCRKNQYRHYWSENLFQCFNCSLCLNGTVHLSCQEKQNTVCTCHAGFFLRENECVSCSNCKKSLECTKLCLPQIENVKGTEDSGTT

T2: mouse TNFR2 (R&D systems, 426-R2-050/CF) (mouse, UniProt P25119 23-258)
T2 construct: Bought protein
T2 sequence (looked up): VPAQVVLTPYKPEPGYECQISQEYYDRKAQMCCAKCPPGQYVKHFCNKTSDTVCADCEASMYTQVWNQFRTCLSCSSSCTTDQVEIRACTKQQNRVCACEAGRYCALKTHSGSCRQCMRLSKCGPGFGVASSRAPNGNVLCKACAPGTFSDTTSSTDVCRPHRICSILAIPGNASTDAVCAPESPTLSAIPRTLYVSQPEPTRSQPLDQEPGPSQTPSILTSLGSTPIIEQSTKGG

T3: rat TNFR2 (R&D systems, 8348-R2-050) (rat, UniProt Q80WY6 23-258)
T3 construct: Bought protein
T3 sequence (looked up): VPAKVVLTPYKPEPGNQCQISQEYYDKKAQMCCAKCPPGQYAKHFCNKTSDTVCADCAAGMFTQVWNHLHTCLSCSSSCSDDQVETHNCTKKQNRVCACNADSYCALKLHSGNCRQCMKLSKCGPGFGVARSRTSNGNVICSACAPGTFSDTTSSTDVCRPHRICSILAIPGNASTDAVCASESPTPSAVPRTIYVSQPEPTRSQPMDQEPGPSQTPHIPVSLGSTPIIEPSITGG

T4: His tagged human TNFR2 ECD (Acro Biosystem, TN2-H5227) (human, UniProt P20333 23-257)
T4 construct: extracellular domain; Bought protein; also called TNFR2-His; hTNFR2-His; not shown: His tag
T4 sequence (looked up): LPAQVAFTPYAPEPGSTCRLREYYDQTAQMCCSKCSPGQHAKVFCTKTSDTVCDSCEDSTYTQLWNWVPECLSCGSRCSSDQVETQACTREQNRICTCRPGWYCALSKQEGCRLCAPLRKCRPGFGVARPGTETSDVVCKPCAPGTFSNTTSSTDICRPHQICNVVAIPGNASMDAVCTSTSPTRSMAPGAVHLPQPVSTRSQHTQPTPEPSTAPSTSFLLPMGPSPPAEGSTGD

T5: Full length human TNFR2 on Jurkat E6-1 cells (Clone NO.3) (human, UniProt P20333 23-461)
T5 construct: whole, on cells; also called human TNFR2+ Jurkat cells; hTNFR2 Jurkat
T5 sequence (looked up): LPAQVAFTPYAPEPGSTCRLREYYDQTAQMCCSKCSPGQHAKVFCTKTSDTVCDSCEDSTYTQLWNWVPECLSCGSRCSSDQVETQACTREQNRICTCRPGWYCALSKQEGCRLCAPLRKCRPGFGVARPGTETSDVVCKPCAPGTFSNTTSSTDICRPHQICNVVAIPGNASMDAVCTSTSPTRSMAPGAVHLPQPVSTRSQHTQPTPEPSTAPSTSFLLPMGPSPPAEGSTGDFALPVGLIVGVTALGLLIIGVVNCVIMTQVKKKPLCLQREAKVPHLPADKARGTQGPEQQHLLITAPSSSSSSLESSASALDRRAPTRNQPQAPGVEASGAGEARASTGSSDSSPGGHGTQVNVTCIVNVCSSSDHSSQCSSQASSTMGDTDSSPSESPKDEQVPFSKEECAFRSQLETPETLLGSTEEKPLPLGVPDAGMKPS


Key:
[1] = biological target: T1, Human TNFR1 (Acro Biosystem, TN1-H5222); assay: ELISA, receptor coated at 1 µg/mL
Procedure: (§1) Human TNFR2 (Acro Biosystem, TN2-H5227), Human TNFR1 (Acro Biosystem, TN1-H5222), Cynomolgus TNFR2 (Sino Biological, 90102-CO8H) or mouse TNFR2 (R&D systems, 426-R2-050/CF) was coated on high binding polystyrene flat bottom micro-titer plates (Thermo Scientific, 3455) in PBS (PH=7.4, Gibco,10010-031) at 1 μg/mL and 100 μL per well. Plates were incubated at 4° C. overnight.
(§2) Plates were warmed up to room temperature the next day and washed with 200 μL PBS containing 0.1% Tween 20 (Life technologies, 003005) per well for 3 times. Plates were blocked with 200 μL PBS buffer containing 1% BSA (Fisher Scientific, BP1600-100) per well for 1 hour at 37° C. Antibodies was titrated from 5 μg/mL in a 5-fold dilution series, distributed 100 μL per well and incubated at 37° C. for 1 hour. Human IgG1 isotype control (BioxCell, BE0297) was used as negative control. Plates were washed with 200 μL PBS containing 0.1% Tween 20 (Life technologies, 003005) per well for 3 times. Goat anti-Human IgG Fc Secondary Antibody-HRP conjugate (Invitrogen, A18817) were distributed at 0.5μg/mL and 100 μL per well to detect bound antibodies. After 1-hour incubation of secondary antibody at 37° C., plates were washed with 200 μL PBS containing 0.1% Tween 20 (Life technologies, 003005) per well for 3 times. Plates were developed using TMB Substrate Solution (eBioscience, 00-4201-56) and stopped with ELISA stop solution (Invitrogen, SSO4). The level of bound antibodies was determined by reading absorbance at 450 nm. Mouse anti-human TNFR1 antibody (ThermoFisher Scientific, MA1-81005) and goat anti mouse IgG secondary antibody-HRP conjugate (Invitrogen, 62-5520) were used as positive control for human TNFR1 detection. Armenian Hamster anti-mouse TNFR2 antibody (InVivoMab, BE0247) and HRP-Goat anti-Armenian Hamster IgG (H+L) Secondary Antibody (Invitrogen, PA1-32045) were used as positive control for mouse TNFR2 detection.

[2] = biological target: T2, mouse TNFR2 (R&D systems, 426-R2-050/CF); assay: ELISA, receptor coated at 1 µg/mL
Procedure: as §1, §2

[3] = biological target: T3, rat TNFR2 (R&D systems, 8348-R2-050); assay: ELISA, receptor coated at 1 µg/ml
Procedure: Plates were incubated at 4° C. overnight. Antibodies was titrated from 100 μg/ml in a 5-fold dilution series, and distributed 100 μL, per well and incubated at 37° C. for 1 hour. Human IgG1 isotype control (BioxCell, BE0297) was used as negative control. TNFR2 Polyclonal Antibody (Invitrogen, PAS-80159) and HRP conjugated Goat anti-Rabbit IgG Fc Secondary Antibody (Invitrogen, A16116) were used as positive control for rat TNFR2 detection.

[4] = biological target: T4, His tagged human TNFR2 ECD (Acro …); assay: ELISA, receptor coated at 1 µg/mL, antibody titrated from 5 µg/mL
Procedure: as §1, §2

[5] = biological target: T5, Full length human TNFR2 on Jurkat E6-1 …; assay: FACS on human TNFR2+ Jurkat Clone No.3, biotinylated antibody with streptavidin-PE
Procedure: FACS analysis was used to evaluate the binding of purified anti-TNFR2 antibody candidates produced from example 6 to cell surface TNFR2 target. Anti-human TNFR2 antibodies and negative control IgG were biotinylated using a EZ-Link™ Micro Sulfo-NHS-Biotinylation Kit (Thermo Fisher Scientific, 21925) according to manufacturer's instructions. Biotinylated antibodies (100 μg/mL) were then incubated with Halt™ Protease Inhibitor Cocktail (100X, Thermo Scientific, 1862209) and 80 μg/mL Streptavidin-R-Phycoerythrin (PE) conjugate (Invitrogen, S21388). Antibodies were stored at 4° C. until use. 5×10⁵ Clone No.3 of human TNFR2⁺ Jurkat cells were distributed each well and blocked with human TruStain FcX™ (Biolegend, 422302) for 10 minutes at room temperature before stained with a serially diluted PE conjugated anti-human TNFR2 antibodies or hIgG1 starting from 50 μg/mL in a 5-fold dilution fashion for 30 minutes at 4° C. PE-anti hTNFR2 (Clone MR2-1, Thermo fisher #TNFR7504) was used as positive control. The geometric mean fluorescent intensity was measured on Sony SA3800 cell analyzer. Data were analyzed using Flowjo Software (Tree star Inc).

Row | Binder | binding result [4] | binding result [5] | binding result [1] | binding result [2] | binding result [3]
1 | TN36-3 (antibody, human IgG1, V domains shown, Humanized; also called AL2/AL9) VH: EVQLVESGGGLIQPGGSLRLSCAASGFSLSSSAVSWVRQAPGKGLEWIGAIGSGGTSYYSNWAKSRFTISRDNSKNTLYLQMNSLRAEDTAVYYCARDPNSSDYPYGAYGMGLWGRGTLVTVSS VL: DIQMTQSPSSLSASVGDRVTITCQVSQSISSYLSWYQQKPGKPPKLLIYYASTLASGVPSRFSGSGSGTDFTLTISSLQPEDFATYYCQQGYITSNVGNAFGGGTKVEIK | binds | binds | no binding (tested: titrated from 5 µg/mL) | no binding (tested: titrated from 5 µg/mL) | no binding (tested: titrated from 100 µg/ml)
2 | TN36-6 (antibody, human IgG1, V domains shown, Humanized; also called AL3/AL8) VH: EVQLVESGGGLIQPGGSLRLSCAASGFSLSSSAVSWVRQAPGKGLEWIGAIGSGGTSYYSNWAKSRFTISRDNSKNTLYLQMNSLRAEDTAVYFCARDPNSSDYPYGAYGMGLWGRGTLVTVSS VL: DIQMTQSPSSLSASVGDRVTITCQVSQSISSYLSWYQQKPGKAPKLLIYYASTLASGVPSRFSGSGSGTDFTLTISSLQPEDFATYYCQQGYITSNVGNAFGGGTKVEIK | binds | binds | no binding (tested: titrated from 5 µg/mL) | no binding (tested: titrated from 5 µg/mL) | no binding (tested: titrated from 100 µg/ml)
3 | TN36-8 (antibody, human IgG1, V domains shown, Humanized; also called AL3/AL10) VH: EVQLVESGGGLIQPGGSLRLSCAASGFSLSSSAVSWVRQAPGKGLEWIGAIGSGGTSYYSNWAKSRFTISRDNSKNTLYLQMNSLRAEDTAVYFCARDPNSSDYPYGAYGMGLWGRGTLVTVSS VL: DIQMTQSPSFLSASVGDRVTITCQVSQSISSYLSWYQQKPGKAPKLLIYYASTLASGVPSRFSGSGSGTDFTLTISSLQPEDFATYYCQQGYITSNVGNAFGGGTKVEIK | binds | binds | no binding (tested: titrated from 5 µg/mL) | no binding (tested: titrated from 5 µg/mL) | no binding (tested: titrated from 100 µg/ml)
4 | TN36-5 (antibody, human IgG1, V domains shown, Humanized; also called AL2/AL11) VH: EVQLVESGGGLIQPGGSLRLSCAASGFSLSSSAVSWVRQAPGKGLEWIGAIGSGGTSYYSNWAKSRFTISRDNSKNTLYLQMNSLRAEDTAVYYCARDPNSSDYPYGAYGMGLWGRGTLVTVSS VL: DIQLTQSPSFLSASVGDRVTITCQVSQSISSYLSWYQQKPGKAPKLLIYYASTLASGVPSRFSGSGSGTEFTLTISSLQPEDFATYYCQQGYITSNVGNAFGGGTKVEIK | binds | binds | no binding (tested: titrated from 5 µg/mL) | no binding (tested: titrated from 5 µg/mL) | no binding (tested: titrated from 100 µg/ml)
5 | TN36-4 (antibody, human IgG1, V domains shown, Humanized; also called AL2/AL10) VH: EVQLVESGGGLIQPGGSLRLSCAASGFSLSSSAVSWVRQAPGKGLEWIGAIGSGGTSYYSNWAKSRFTISRDNSKNTLYLQMNSLRAEDTAVYYCARDPNSSDYPYGAYGMGLWGRGTLVTVSS VL: DIQMTQSPSFLSASVGDRVTITCQVSQSISSYLSWYQQKPGKAPKLLIYYASTLASGVPSRFSGSGSGTDFTLTISSLQPEDFATYYCQQGYITSNVGNAFGGGTKVEIK | binds | binds | no binding (tested: titrated from 5 µg/mL) | no binding (tested: titrated from 5 µg/mL) | no binding (tested: titrated from 100 µg/ml)

Further lines, with some results ahead:

Row | binding result [4] | binding result [5] | Binder | binding result [1] | binding result [2] | binding result [3]
6 | binds | binds | TN36-7 (antibody, human IgG1, V domains shown, Humanized; also called AL3/AL9) VH: EVQLVESGGGLIQPGGSLRLSCAASGFSLSSSAVSWVRQAPGKGLEWIGAIGSGGTSYYSNWAKSRFTISRDNSKNTLYLQMNSLRAEDTAVYFCARDPNSSDYPYGAYGMGLWGRGTLVTVSS VL: DIQMTQSPSSLSASVGDRVTITCQVSQSISSYLSWYQQKPGKPPKLLIYYASTLASGVPSRFSGSGSGTDFTLTISSLQPEDFATYYCQQGYITSNVGNAFGGGTKVEIK | no binding (tested: titrated from 5 µg/mL) | no binding (tested: titrated from 5 µg/mL) | no binding (tested: titrated from 100 µg/ml)
7 | binds | binds | TN36-9 (antibody, human IgG1, V domains shown, Humanized; also called AL3/AL11) VH: EVQLVESGGGLIQPGGSLRLSCAASGFSLSSSAVSWVRQAPGKGLEWIGAIGSGGTSYYSNWAKSRFTISRDNSKNTLYLQMNSLRAEDTAVYFCARDPNSSDYPYGAYGMGLWGRGTLVTVSS VL: DIQLTQSPSFLSASVGDRVTITCQVSQSISSYLSWYQQKPGKAPKLLIYYASTLASGVPSRFSGSGSGTEFTLTISSLQPEDFATYYCQQGYITSNVGNAFGGGTKVEIK | no binding (tested: titrated from 5 µg/mL) | no binding (tested: titrated from 5 µg/mL) | no binding (tested: titrated from 100 µg/ml)

— patent US20240043551A1 (ADLAI NORTYE BIOPHARMA, published 2024)
